The values below come from patent US20250145716A1 (RAKUTEN MEDICAL, published 2025).

For experiment [1], the target named is T1, human PD-L1 expressed on cells (human, UniProt Q9NZQ7 19-290). Kind of experiment: cell-based or functional assay.
The target of the next experiment is T2, 6xHis-tagged huPD-L1 (human, UniProt Q9NZQ7 19-238).
T2 construct: also called human PD-L1 (RD Systems 9049-B7); extracellular domain of human PD-L1 fused to a His tag; not shown: 6xHis tag
Kind of experiment: ELISA, plate-coated 6xHis huPD-L1, OD 450 nm. How it is done: Hybridoma supernatants were tested for binding to huPD-L1, cyPD-L1, and muPD-L1 by ELISA. Briefly, 30 μL 6xHis-tagged huPD-L1, cyPD-L1, or muPD-L1 (1 μg/mL in PBS) were immobilized in wells of a 96-well assay plate overnight at 4° C. After washing and blocking steps, 30 μL of antibody supernatant were added to the plate and incubated at room temperature for 1 hr. Bound human antibody was detected using horseradish peroxidase (HRP)-conjugated goat anti-human Fc (Invitrogen Cat. No. 109-035-097; diluted 1:5000) or goat anti-mouse Fc HRP (Invitrogen Cat. No. 115-035-071) as a control. Bound antibody was detected with 1-Step Ultra™ TMB-ELISA Substrate (ThermoFisher Scientific Cat. No. 34029). When the reaction was complete the reaction was stopped, and the plate was read at 450 nm.
Anti-PD-L1 antibodies, described in Example 1A and manufactured substantially as described in Example 1B, were tested for to huPD-L1 and cyPD-L1 by ELISA substantially as described in Example 1A, using 12 dilutions of antibody ranging from 1 ng/ml to 3 mg/mL.

Experiment [2] addresses T1, human PD-L1 expressed on cells. Description: flow cytometry, PD-L1-expressing CHO cells, MFI (FITC). How it is done: Wild-type (wt) Chinese hamster ovary (CHO) cells (ATCC) and CHO cells engineered to express huPD-L1 (BPS Bioscience) were seeded at 200,000 cells in 50 μL FACS buffer (PBS containing 1% FBS and 5 mM EDTA) per well of a 96-well plate. Cell viability was assessed by adding 50 μL 2×Zombie Violet (BioLegend). Dead cell controls were also prepared and 2×Zombie violet was added. After incubating 20-30 minutes at room temperature, protected from light, 150 μL FACS buffer were added to each well. The plates were centrifuged, and the supernatant was aspirated. […] The plates were incubated 30 minutes on ice, protected from light. 150 μL FACS buffer were then added to each well and the plate was centrifuged. The supernatant was removed and the cells were washed three times in 200 μL FACS buffer. […] The cells were incubated 30 minutes on ice, protected from light. 150 μL FACS buffer were then added to each well and the plate was centrifuged. Supernatant was removed and the cells were washed twice with 200 μL FACS buffer. The cells were then resuspended in FACS buffer and analyzed by CytoFLEX using the appropriate channels. After gating for whole, single, live cells, the MFI in the APC channel (or FITC channel for human control samples) was normalized to the signal from hybridoma media alone (or isotype control for human control). MFI fold over media alone was determined for each clone supernatant tested.

T1 sequence (Q9NZQ7 19-290): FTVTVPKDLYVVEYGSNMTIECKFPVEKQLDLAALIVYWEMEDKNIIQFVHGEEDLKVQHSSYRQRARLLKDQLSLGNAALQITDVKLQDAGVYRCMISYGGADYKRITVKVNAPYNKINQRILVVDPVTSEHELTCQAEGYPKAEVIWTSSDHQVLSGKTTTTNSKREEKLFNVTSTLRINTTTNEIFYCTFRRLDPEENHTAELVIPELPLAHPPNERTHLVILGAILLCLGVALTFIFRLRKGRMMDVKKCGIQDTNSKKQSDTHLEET
T2 sequence (Q9NZQ7 19-238): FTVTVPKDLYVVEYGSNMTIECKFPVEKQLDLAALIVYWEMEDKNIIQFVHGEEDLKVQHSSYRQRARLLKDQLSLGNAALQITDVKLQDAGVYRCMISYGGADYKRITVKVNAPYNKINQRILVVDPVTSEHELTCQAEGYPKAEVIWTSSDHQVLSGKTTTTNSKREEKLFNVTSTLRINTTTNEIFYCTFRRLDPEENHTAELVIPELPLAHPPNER

B1: 1P9 (antibody, V domains shown)
VH: EVQLVESGGGLVQPGGSLRLSCAASGFTFSTYWMSWVRQAPGKGLEWVANIKQDGGERYYVDSVKGRFTISRDNAKSSLYLQMNSLRAEDTALYYCARLRLYSDYEDYWGQGTLVTVSS
VL: DIQMTQSPSSVSASVGDRVTITCRASQGISSWLAWYQQKPGKAPKLLIYSVSSLQSGVPSRFSGSGSGTDFTLTISSLQPEDSATYYCQQANSLPPTFGGGTKVEIK
notes: Recombinant full-length human antibody expressed in CHO K1 GS KO cells, with wild-type human Fc; also called anti-PD-L1 antibody 1P9; Unconj; 1P9
With B1, in experiment [1], the “EC50 of luminescence (RLU), PD-1:PD-L1 Blockade Bioassay (PD-L1 aAPC/CHO-K1 cells with PD-1 Effector Jurkat NFAT-luciferase cells)” value turned out to be 0.067 µg/mL. For the same molecule, the half-maximal effective concentration (EC50) amounted to 0.0359 µg/mL with 6xHis-tagged huPD-L1 and 0.0199 µg/mL in experiment [2].

As a reminder, the EC50 is the concentration at which the effect is half-maximal. Lower therefore signals an effect from little substance.
